The results in this text go back to PMC6695518.

The subject of series [1] is TbMex67 (Trypanosoma brucei). Description: filter binding. The settings on record: TbMex67 alone; 10 mM Tris-HCl pH 7.4, 100 mM NaCl, 1 mM EDTA, 100 ug/ml BSA, 0.05 nM RNA, 0-200 nM protein, 30 min, room temperature; RNA preheated 55 C 10 min then ice.
Series [2] deals with TbMex67;TbMtr2 (Trypanosoma brucei;Trypanosoma brucei). The series can be described thus: filter binding. The conditions noted are these: TbMex67 and TbMtr2 preincubated together; Kd in total TbMex67; 10 mM Tris-HCl pH 7.4, 100 mM NaCl, 1 mM EDTA, 100 ug/ml BSA, 0.05 nM RNA, 0-200 nM protein, 30 min, room temperature; RNA preheated 55 C 10 min then ice.
The target of series [3] is P34/P37, endogenous. Description: co-IP; in vivo immune capture: 100 ug procyclic whole-cell extract with anti-P34/P37 or anti-L5 cross-linked protein A Dynabeads, PBS with 10 mg/ml BSA, 1 h at 4°C, without RNase A; Western blot for TbMex67; input set at 1.0. On the technique in general: In western blotting, separated proteins are transferred to a membrane and probed.
Series [4] has as its target ribosomal protein L5, endogenous (Trypanosoma brucei brucei strain 427 (endogenous in procyclic cells)). The series is described as above.
Series [5] concerns the target P34/P37, endogenous. The series can be described thus: co-IP; in vivo immune capture as above, with RNase A (50 ug) added to the whole-cell extract; Western blot for TbMex67; input set at 1.0.
The target in series [6] is ribosomal protein L5, endogenous (Trypanosoma brucei brucei strain 427 (endogenous in procyclic cells)). The series is described as above.
Series [7] concerns the target recombinant His-tagged L5 (Trypanosoma brucei). The series can be described thus: co-IP; recombinant immune capture as above, with in vitro-transcribed 5S rRNA added before the proteins at an equal molar ratio; Western blot.
The target in series [8] is recombinant His-tagged P34 (Trypanosoma brucei). The series is described as above.

One may read the Kd as the concentration at which binding is half-saturated. High values mean a looser complex, low ones a tighter complex.

5S rRNA: the equilibrium dissociation constant (Kd) was determined as 41 nM in series [1] and 10 nM in series [2].
“Trypanosoma brucei Mex67 (TbMex67), endogenous (natural protein)” yielded a relative total amount of TbMex67 in the pellet fraction (relative to input set at 1.0) with P34/P37, endogenous [3] of 0.35. Also, the fraction of the total amount of TbMex67 associated with L5 (relative to input set at 1.0) in series [4] was 0.43. Further, the relative amount of TbMex67 in the pellet, with RNase A (relative to input set at 1.0) with P34/P37, endogenous [5] worked out at 0.53. Further, the amount of TbMex67 in the pellet, with RNase A (relative to input set at 1.0) in series [6] is 0.8.
Take “recombinant His-tagged TbMex67 (natural protein)”: the ratio of TbMex67 in the pellet with 5S rRNA to without in series [7] and in series [8] was 0.94 throughout.
